Residue numbers refer to the chain shown, from its start.
T1: His-SUMO-tagged CHC17 terminal domain (human, UniProt Q00610 1-364)
T1 construct: CHC17 clathrin heavy chain, N-terminal domain (TD), residues 1-364; also called CHC17 TD; His-bdSUMO-CHC17 TD; source: E. coli Rosetta 2 pLysS, purified (HisTrap, size exclusion); not shown: His, N-terminal, kept; bdSUMO, N-terminal, kept
T1 sequence (looked up): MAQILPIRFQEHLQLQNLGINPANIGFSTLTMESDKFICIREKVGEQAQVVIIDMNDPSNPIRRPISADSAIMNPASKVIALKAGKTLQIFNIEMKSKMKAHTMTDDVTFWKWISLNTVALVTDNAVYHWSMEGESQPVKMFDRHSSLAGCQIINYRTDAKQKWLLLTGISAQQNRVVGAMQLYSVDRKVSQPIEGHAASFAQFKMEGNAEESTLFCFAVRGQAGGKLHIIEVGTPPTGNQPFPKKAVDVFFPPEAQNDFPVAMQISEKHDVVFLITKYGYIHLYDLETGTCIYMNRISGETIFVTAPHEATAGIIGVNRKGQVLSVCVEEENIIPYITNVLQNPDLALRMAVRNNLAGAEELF

T2: full-length His-p115 (UniProt O60763 1-962)
T2 construct: p115, full-length, encoded by plasmid pIY119 (gift, Munro lab); not shown: 6xHis, N-terminal, kept
T2 sequence (looked up): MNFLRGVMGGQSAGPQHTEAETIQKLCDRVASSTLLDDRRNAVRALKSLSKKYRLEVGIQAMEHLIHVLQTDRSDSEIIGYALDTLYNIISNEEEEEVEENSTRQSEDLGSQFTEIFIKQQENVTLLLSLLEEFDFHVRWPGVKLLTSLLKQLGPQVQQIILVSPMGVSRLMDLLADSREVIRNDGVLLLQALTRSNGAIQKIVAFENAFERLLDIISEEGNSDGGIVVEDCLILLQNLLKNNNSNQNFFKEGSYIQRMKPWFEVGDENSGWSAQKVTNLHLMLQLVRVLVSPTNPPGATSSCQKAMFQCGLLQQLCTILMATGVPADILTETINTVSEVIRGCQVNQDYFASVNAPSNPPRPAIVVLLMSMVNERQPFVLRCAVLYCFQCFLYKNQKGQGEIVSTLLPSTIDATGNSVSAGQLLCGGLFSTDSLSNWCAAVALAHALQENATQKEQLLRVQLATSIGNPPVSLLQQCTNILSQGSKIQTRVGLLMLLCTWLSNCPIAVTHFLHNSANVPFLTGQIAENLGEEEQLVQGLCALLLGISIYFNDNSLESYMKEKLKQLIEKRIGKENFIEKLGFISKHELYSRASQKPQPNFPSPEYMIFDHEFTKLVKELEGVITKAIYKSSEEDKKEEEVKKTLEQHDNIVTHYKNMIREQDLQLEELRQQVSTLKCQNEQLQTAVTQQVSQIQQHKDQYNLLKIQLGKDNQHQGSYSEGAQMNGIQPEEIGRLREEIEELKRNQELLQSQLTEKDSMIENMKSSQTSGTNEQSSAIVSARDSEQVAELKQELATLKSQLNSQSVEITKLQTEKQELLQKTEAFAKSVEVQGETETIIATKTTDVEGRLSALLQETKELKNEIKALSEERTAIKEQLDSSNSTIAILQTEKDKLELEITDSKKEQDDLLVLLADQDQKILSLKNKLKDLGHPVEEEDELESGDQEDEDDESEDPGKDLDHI

T3: His-tagged CHC22 Hub (human, UniProt P53675 1074-1640)
T3 construct: CHC22 clathrin heavy chain, Hub domain (C-terminal third), residues 1074-1640; also called His-CHC22-Hub; not shown: 6xHis, N-terminal, kept
T3 sequence (looked up): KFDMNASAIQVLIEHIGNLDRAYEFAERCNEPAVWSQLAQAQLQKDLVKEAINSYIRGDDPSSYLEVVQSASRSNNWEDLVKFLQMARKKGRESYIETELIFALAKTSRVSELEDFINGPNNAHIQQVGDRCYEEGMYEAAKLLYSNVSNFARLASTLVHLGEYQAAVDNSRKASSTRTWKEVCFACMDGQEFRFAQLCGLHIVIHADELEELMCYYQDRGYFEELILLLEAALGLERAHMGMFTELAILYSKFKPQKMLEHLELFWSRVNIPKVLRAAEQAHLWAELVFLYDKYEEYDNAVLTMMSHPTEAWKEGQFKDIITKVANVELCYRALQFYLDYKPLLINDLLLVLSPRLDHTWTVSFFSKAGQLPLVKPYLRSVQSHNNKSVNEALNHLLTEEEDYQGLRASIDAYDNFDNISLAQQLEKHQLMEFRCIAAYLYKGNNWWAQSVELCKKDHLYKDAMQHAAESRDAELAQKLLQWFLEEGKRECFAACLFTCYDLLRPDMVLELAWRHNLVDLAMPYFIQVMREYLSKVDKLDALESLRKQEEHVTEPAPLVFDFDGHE

T4: full-length GST-p115 (UniProt O60763 1-962)
T4 construct: p115, full-length, residues 1-962, amplified from pIY119 into pGEX3; not shown: GST, N-terminal, kept
T4 sequence (looked up): T2 sequence (looked up)

T5: full-length GST-SNX5 phosphomimetic S226E mutant (human, UniProt Q9Y5X3 1-404, S226E)
T5 construct: sorting nexin 5, human, full-length (1-404) with phosphomimetic point mutation S226E in the BAR domain; The making of the mutant is not described; also called GST-SNX5 S226E; not shown: GST, N-terminal, kept
T5 sequence (looked up): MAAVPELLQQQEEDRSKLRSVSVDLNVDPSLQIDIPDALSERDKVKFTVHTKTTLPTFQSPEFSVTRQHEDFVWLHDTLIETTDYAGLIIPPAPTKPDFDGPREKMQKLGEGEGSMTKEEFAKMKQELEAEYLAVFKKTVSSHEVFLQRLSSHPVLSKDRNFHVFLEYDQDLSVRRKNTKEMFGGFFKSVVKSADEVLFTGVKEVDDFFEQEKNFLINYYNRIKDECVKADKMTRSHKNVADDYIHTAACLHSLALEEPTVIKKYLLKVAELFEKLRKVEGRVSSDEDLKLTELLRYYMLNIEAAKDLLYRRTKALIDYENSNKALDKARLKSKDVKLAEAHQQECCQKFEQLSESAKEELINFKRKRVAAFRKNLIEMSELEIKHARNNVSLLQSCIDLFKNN

B1: GST-GGA2-HE (domain or fragment, UniProt Q9UJY4 316-613, looked up)
chain: GRVTFGNRVTSSLGDIPVSRVFQNPAGCMKTCPLIDLEVDNGPAQMGTVVPSLLHQDLAALGISDAPVTGMVSGQNCCEEKRNPSSSTLPGGGVQNPSADRNLLDLLSAQPAPCPLNYVSQKSVPKEVPPGTKSSPGWSWEAGPLAPSPSSQNTPLAQVFVPLESVKPSSLPPLIVYDRNGFRILLHFSQTGAPGHPEVQVLLLTMMSTAPQPVWDIMFQVAVPKSMRVKLQPASSSKLPAFSPLMPPAVISQMLLLDNPHKEPIRLRYKLTFNQGGQPFSEVGEVKDFPDLAVLGAA
notes: GGA2, hinge-GAE (hinge-ear) fragment, residues 316-613; also called GGA2-hinge-GAE; hinge-ear fragment of GGA2; not shown: GST, N-terminal, kept
B2: full-length GST-SNX5 wild-type (natural protein, human, UniProt Q9Y5X3 1-404, looked up)
chain: T5 sequence (looked up) with E226S
notes: sorting nexin 5, human, full-length, residues 1-404, amplified from human cDNA of the GM25256 cell line, in pGEX3; also called GST-SNX5 WT; WT; source: E. coli Rosetta 2 pLysS, purified (GSTrap, size exclusion); not shown: GST, N-terminal, kept
B3: His-SUMO-tagged CHC22 terminal domain, wild-type (domain or fragment, human, UniProt P53675 1-364, looked up)
chain: MAQILPVRFQEHFQLQNLGINPANIGFSTLTMESDKFICIREKVGEQAQVTIIDMSDPMAPIRRPISAESAIMNPASKVIALKAGKTLQIFNIEMKSKMKAHTMAEEVIFWKWVSVNTVALVTETAVYHWSMEGDSQPMKMFDRHTSLVGCQVIHYRTDEYQKWLLLVGISAQQNRVVGAMQLYSVDRKVSQPIEGHAAAFAEFKMEGNAKPATLFCFAVRNPTGGKLHIIEVGQPAAGNQPFVKKAVDVFFPPEAQNDFPVAMQIGAKHGVIYLITKYGYLHLYDLESGVCICMNRISADTIFVTAPHKPTSGIIGVNKKGQVLSVCVEEDNIVNYATNVLQNPDLGLRLAVRSNLAGAEKLF
notes: CHC22 clathrin heavy chain, N-terminal domain (TD), residues 1-364; also called CHC22 TD; His-bdSUMO-CHC22 TD; source: E. coli Rosetta 2 pLysS, purified (HisTrap, size exclusion); not shown: His, N-terminal, kept; bdSUMO, N-terminal, kept
B4: His-tagged CHC22 TxD (domain or fragment, human, UniProt P53675 1521-1640, looked up)
chain: WAQSVELCKKDHLYKDAMQHAAESRDAELAQKLLQWFLEEGKRECFAACLFTCYDLLRPDMVLELAWRHNLVDLAMPYFIQVMREYLSKVDKLDALESLRKQEEHVTEPAPLVFDFDGHE
notes: CHC22 clathrin heavy chain, trimerization domain; methods give residues 1521-1640, the results 1520-1640; Limits told in two ways (1521-1640 in methods, 1520-1640 in results); also called His-22TxD; His-CHC22 TxD; source: E. coli BL21 (DE3), purified (HisTrap, size exclusion); not shown: 6xHis, N-terminal, kept

Legend:
Details in all cases: both partners purified
[1] = molecular target: T1, His-SUMO-tagged CHC17 terminal domain; experiment: pull-down; GST, GST-GGA2-HE or GST-p115 on glutathione beads, 12.5 µg purified His-bdSUMO-CHC17 TD in 250 µl CHC17 PD buffer for 60 min, immunoblot
[2] = molecular target: B3; experiment: pull-down; GST, GST-GGA2-HE or GST-p115 on glutathione beads, 12.5 µg purified His-bdSUMO-CHC22 TD (WT or Chim) in 250 µl CHC22 PD buffer for 45 min, immunoblot
full-length His-SNX1 = molecular target: T6, full-length His-SNX1 (UniProt Q13596 1-522)
T6 construct: SNX1, full-length, residues 1-522, sub-cloned from a plasmid of the Cullen lab into pET15b; also called recombinant SNX1; source: E. coli BL21 (DE3), purified (HisTrap, size exclusion); not shown: 6xHis, N-terminal, kept

full-length His-p115 = molecular target: T2, full-length His-p115; experiment: pull-down; His-tagged bait on Ni-NTA HisPur beads, 15 µg purified GST-only or GST-SNX5 as prey in 250 µL His PD buffer for 45 min, immunoblot
His-tagged CHC22 Hub = molecular target: T3, His-tagged CHC22 Hub; experiment: as above
full-length GST-p115 = molecular target: T4, full-length GST-p115; experiment: pull-down; GST, GST-GGA2-HE or GST-p115 on glutathione beads, 12.5 µg purified His-bdSUMO-CHC22 TD (WT or Chim) in 250 µl CHC22 PD buffer for 45 min, immunoblot
[3] = molecular target: B2
[4] = molecular target: T5, full-length GST-SNX5 phosphomimetic …

T6 sequence (Q13596 whole entry, the tested form may be a part): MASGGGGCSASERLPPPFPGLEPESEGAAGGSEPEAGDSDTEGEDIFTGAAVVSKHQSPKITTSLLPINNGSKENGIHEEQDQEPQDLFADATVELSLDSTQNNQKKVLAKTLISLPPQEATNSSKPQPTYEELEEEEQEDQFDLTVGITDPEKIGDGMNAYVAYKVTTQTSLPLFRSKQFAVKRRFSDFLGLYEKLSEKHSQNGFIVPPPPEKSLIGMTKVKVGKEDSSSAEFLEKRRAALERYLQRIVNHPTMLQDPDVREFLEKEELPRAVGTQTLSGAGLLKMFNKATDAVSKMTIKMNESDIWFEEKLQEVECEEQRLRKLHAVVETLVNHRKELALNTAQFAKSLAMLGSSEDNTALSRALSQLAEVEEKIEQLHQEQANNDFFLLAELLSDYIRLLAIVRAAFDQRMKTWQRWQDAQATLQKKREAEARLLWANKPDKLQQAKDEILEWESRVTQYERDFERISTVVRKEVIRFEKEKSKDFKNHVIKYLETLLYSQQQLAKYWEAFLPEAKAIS

Binder: B1
binding result [1]: binds
binding result [2]: binds

Binder: B2
binding result (full-length His-SNX1): binds
binding result (full-length His-p115): binds
binding result (His-tagged CHC22 Hub): binds

Binder: B3
binding result (full-length GST-p115): binds

Binder: B4
binding result [3]: binds
binding result [4]: binds

Reference: paper PMC11445476, “CHC22 clathrin recruitment to the early secretory pathway requires two-site interaction with SNX5 and p115” (The EMBO Journal, 2024)
